Reference: patent US20230074436A1 (DENALI THERAPEUTICS, published 2023)
No end group written: not given here. *: point of attachment. Biotin = O=C1N[C@H]2[C@H](CS[C@H]2CCCCC(=O)*)N1

Tests used:
[1] = molecular target: T1, asyn_113-127 (human); assay: Ala-scan peptide ELISA, row C, run 1; note: test concentration or dose not given here
T1 construct: also called pep1
T1 peptide: Biotin-LEDMPVDPDNEAYEM

[2] = molecular target: T2, asyn_113-127_113A (human); assay: Ala-scan peptide ELISA, row C, run 1; note: test concentration or dose not given here
T2 construct: substitution is already in the entry; also called pep2
T2 peptide: Biotin-AEDMPVDPDNEAYEM

[3] = molecular target: T3, asyn_113-127_114A (human); assay: Ala-scan peptide ELISA, row C, run 1; note: test concentration or dose not given here
T3 construct: substitution is already in the entry; also called pep3
T3 peptide: Biotin-LADMPVDPDNEAYEM

[4] = molecular target: T4, asyn_113-127_115A (human); assay: Ala-scan peptide ELISA, row C, run 1; note: test concentration or dose not given here
T4 construct: substitution is already in the entry; also called pep4
T4 peptide: Biotin-LEAMPVDPDNEAYEM

[5] = molecular target: T5, asyn_113-127_116A (human); assay: Ala-scan peptide ELISA, row C, run 1; note: test concentration or dose not given here
T5 construct: substitution is already in the entry; also called pep5
T5 peptide: Biotin-LEDAPVDPDNEAYEM

[6] = molecular target: T6, asyn_113-127_117A (human); assay: Ala-scan peptide ELISA, row C, run 1; note: test concentration or dose not given here
T6 construct: substitution is already in the entry; also called pep6
T6 peptide: Biotin-LEDMAVDPDNEAYEM

[7] = molecular target: T7, asyn_113-127_118A (human); assay: Ala-scan peptide ELISA, row C, run 1
T7 construct: substitution is already in the entry; also called pep7
T7 peptide: Biotin-LEDMPADPDNEAYEM

[8] = molecular target: T8, asyn_113-127_119A (human); assay: Ala-scan peptide ELISA, row C, run 1
T8 construct: substitution is already in the entry; also called pep8
T8 peptide: Biotin-LEDMPVAPDNEAYEM

[9] = molecular target: T9, asyn_113-127_120A (human); assay: Ala-scan peptide ELISA, row C, run 1
T9 construct: substitution is already in the entry; also called pep9
T9 peptide: Biotin-LEDMPVDADNEAYEM

[10] = molecular target: T10, asyn_113-127_121A (human); assay: Ala-scan peptide ELISA, row C, run 1
T10 construct: substitution is already in the entry; also called pep10
T10 peptide: Biotin-LEDMPVDPANEAYEM

[11] = molecular target: T11, asyn_113-127_122A (human); assay: Ala-scan peptide ELISA, row C, run 1
T11 construct: substitution is already in the entry; also called pep11
T11 peptide: Biotin-LEDMPVDPDAEAYEM

[12] = molecular target: T12, asyn_113-127_123A (human); assay: Ala-scan peptide ELISA, row C, run 1
T12 construct: substitution is already in the entry; also called pep12
T12 peptide: Biotin-LEDMPVDPDNAAYEM

[13] = molecular target: T13, asyn_113-127_124G (human); assay: Ala-scan peptide ELISA, row C, run 1
T13 construct: substitution is already in the entry; also called pep13
T13 peptide: Biotin-LEDMPVDPDNEGYEM

[14] = molecular target: T14, asyn_113-127_124P (human); assay: Ala-scan peptide ELISA, row C, run 1
T14 construct: substitution is already in the entry; also called pep14
T14 peptide: Biotin-LEDMPVDPDNEPYEM

[15] = molecular target: T15, asyn_113-127_125A (human); assay: Ala-scan peptide ELISA, row C, run 1
T15 construct: substitution is already in the entry; also called pep15
T15 peptide: Biotin-LEDMPVDPDNEAAEM

[16] = molecular target: T16, asyn_113-127_126A (human); assay: Ala-scan peptide ELISA, row C, run 1
T16 construct: substitution is already in the entry; also called pep16
T16 peptide: Biotin-LEDMPVDPDNEAYAM

[17] = molecular target: T17, asyn_113-127_127A (human); assay: Ala-scan peptide ELISA, row C, run 1
T17 construct: substitution is already in the entry; also called pep17
T17 peptide: Biotin-LEDMPVDPDNEAYEA

[18] = molecular target: T18, biotinylated human alpha-synuclein (human, UniProt P37840 1-140); assay: Ala-scan peptide ELISA, row C, run 1
[19] = molecular target: T1, asyn_113-127; assay: Ala-scan peptide ELISA, row E, run 1
[20] = molecular target: T2, asyn_113-127_113A; assay: Ala-scan peptide ELISA, row E, run 1
[21] = molecular target: T4, asyn_113-127_115A; assay: Ala-scan peptide ELISA, row E, run 1
[22] = molecular target: T9, asyn_113-127_120A; assay: Ala-scan peptide ELISA, row E, run 1
[23] = molecular target: T11, asyn_113-127_122A; assay: Ala-scan peptide ELISA, row E, run 1
[24] = molecular target: T15, asyn_113-127_125A; assay: Ala-scan peptide ELISA, row E, run 1
[25] = molecular target: T16, asyn_113-127_126A; assay: Ala-scan peptide ELISA, row E, run 1
[26] = molecular target: T17, asyn_113-127_127A; assay: Ala-scan peptide ELISA, row E, run 1
[27] = molecular target: T18, biotinylated human alpha-synuclein; assay: Ala-scan peptide ELISA, row E, run 1
[28] = molecular target: T2, asyn_113-127_113A; assay: Ala-scan peptide ELISA, row G, run 2
[29] = molecular target: T3, asyn_113-127_114A; assay: Ala-scan peptide ELISA, row G, run 2
[30] = molecular target: T5, asyn_113-127_116A; assay: Ala-scan peptide ELISA, row G, run 2
[31] = molecular target: T6, asyn_113-127_117A; assay: Ala-scan peptide ELISA, row G, run 2
[32] = molecular target: T7, asyn_113-127_118A; assay: Ala-scan peptide ELISA, row G, run 2
[33] = molecular target: T8, asyn_113-127_119A; assay: Ala-scan peptide ELISA, row G, run 2
[34] = molecular target: T11, asyn_113-127_122A; assay: Ala-scan peptide ELISA, row G, run 2
[35] = molecular target: T12, asyn_113-127_123A; assay: Ala-scan peptide ELISA, row G, run 2
[36] = molecular target: T17, asyn_113-127_127A; assay: Ala-scan peptide ELISA, row G, run 2

A450 [1]: 0.48 OD | A450 [2]: 0.498 OD | A450 [3]: 0.417 OD | A450 [4]: 0.417 OD | A450 [5]: 0.48 OD | A450 [6]: 0.494 OD | A450 [7]: 0.403 OD | A450 [8]: 0.059 OD | A450 [9]: 0.323 OD | A450 [10]: 0.443 OD | A450 [11]: 0.052 OD | A450 [12]: 0.476 OD | A450 [13]: 0.34 OD | A450 [14]: 0.051 OD | A450 [15]: 0.049 OD | A450 [16]: 0.371 OD | A450 [17]: 0.379 OD | A450 [18]: 0.588 OD | A450 [19]: 0.297 OD | A450 [20]: 0.302 OD | A450 [21]: 0.183 OD | A450 [22]: 0.2 OD | A450 [23]: 0.051 OD | A450 [24]: 0.045 OD | A450 [25]: 0.235 OD | A450 [26]: 0.248 OD | A450 [27]: 0.383 OD | A450 [28]: 0.095 OD | A450 [29]: 0.093 OD | A450 [30]: 0.101 OD | A450 [31]: 0.108 OD | A450 [32]: 0.109 OD | A450 [33]: 0.05 OD | A450 [34]: 0.048 OD | A450 [35]: 0.103 OD | A450 [36]: 0.092 OD
B1: 20H4 (antibody, rat IgG2b, V domains shown)
VH: AVQLVESGGGLVQPKESLKISCAASGFTFSNAAMYWVRQAPGKGLELLARIRTKPNNYATYHADSVKGRFTISRDDSQSMVYLHMGNLKTEDTAMYYCTADMATGDYWGPGVMVTVSS
VL: DIQMTQSPPVLSVSVGDRVTLSCKASQNINKNLDWYQQKHGEAPKPLIYSTNNLQTGVPSRFSGSGSGTDYTLTISSLQPEDVATYYCYQYKSAWTFGGGTKLELR
notes: also called clone 20H4; rat 20H4
